EC50 data for 33 molecules are collected here from US20240392020A1 (JIANGSU HENGRUI PHARMACEUTICALS, published 2024).

Residue numbers refer to the chain shown, from its start.

To fix the notation:
T1: B7H3 on the recombinant cell line CT26-B7H3 (UniProt Q5ZPR3 29-534, limits assumed)
T1 construct: whole, on cells
T1 sequence (looked up): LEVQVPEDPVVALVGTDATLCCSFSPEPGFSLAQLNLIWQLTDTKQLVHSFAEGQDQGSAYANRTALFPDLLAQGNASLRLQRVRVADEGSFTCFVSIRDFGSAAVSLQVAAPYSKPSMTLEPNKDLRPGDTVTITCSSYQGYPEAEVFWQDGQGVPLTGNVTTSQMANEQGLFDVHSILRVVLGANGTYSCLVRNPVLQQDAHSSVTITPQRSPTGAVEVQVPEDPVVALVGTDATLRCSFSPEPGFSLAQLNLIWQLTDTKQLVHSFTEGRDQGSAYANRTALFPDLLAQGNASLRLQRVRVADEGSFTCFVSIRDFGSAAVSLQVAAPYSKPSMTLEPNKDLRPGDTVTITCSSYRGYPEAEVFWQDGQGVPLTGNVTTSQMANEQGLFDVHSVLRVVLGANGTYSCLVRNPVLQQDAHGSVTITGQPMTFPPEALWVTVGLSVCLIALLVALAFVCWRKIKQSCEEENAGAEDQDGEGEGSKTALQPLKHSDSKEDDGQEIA

B1: F18 (antibody)
heavy: not shown
light: DTVVTQEPSFSVSPGGTVTLTCGLSSGSVSTSHYPSWYQQTPGQAPRMLIYNTNTRSSGVPDRFSGSILGNKAALTITGAQADDESDYYCAIHVDRDIWVFGGGTKLTVLSGAPRFKTRPKAFVVSVGKDATLSSQIVGNPTPQVSWEKDQQPVAAGARFRLAQDGDLYRLHILDLALGDSGQYVSRARNAIGEAFACVGLQVDAEA
B2: F16 (antibody)
heavy: not shown
light: B1 light with K117L, H172T
B3: F23 (antibody)
heavy: not shown
light: B1 light with K117L, K121L
B4: F19 (antibody)
heavy: not shown
light: B1 light
B5: F20 (antibody)
heavy: not shown
light: B1 light with K117L, K121L, H172K
B6: F21 (antibody)
heavy: not shown
light: B1 light with K117L, K121L, H172K
B7: F22 (antibody)
heavy: not shown
light: B1 light with K117L, K121L
B8: F17 (antibody)
heavy: not shown
light: B1 light with H172K
B9: F24 (antibody)
heavy: not shown
light: DTVVTQEPSFSVSPGGTVTLTCGLSSGSVSTSHYPSWYQQTPGQAPRMLIYNTNTRSSGVPDRFSGSILGNKAALTITGAQADDESDYYCAIHVDRDIWVFGGGTKLTVLDQPQFSGAPRFKTRPKAFVVSVGKDATLSSQIVGNPTPQVSWEKDQQPVAAGARFRLAQDGDLYRLKILDLALGDSGQYVSRARNAIGEAFACVGLQVDAEA
B10: F25 (antibody)
heavy: not shown
light: B9 light
B11: F29 (antibody)
heavy: not shown
light: B9 light with K122R
B12: F30 (antibody)
heavy: not shown
light: B9 light with K122R, K177H
B13: F31 (antibody)
heavy: not shown
light: B9 light with K122R, K177H
B14: F26 (antibody)
heavy: not shown
light: B9 light with K177H
B15: F28 (antibody)
heavy: not shown
light: B9 light with K122R
B16: F27 (antibody)
heavy: not shown
light: B9 light with K177H
B17: F32 (antibody)
heavy: not shown
light: DTVVTQEPSFSVSPGGTVTLTCGLSSGSVSTSHYPSWYQQTPGQAPRMLIYNTNTRSSGVPDRFSGSILGNKAALTITGAQADDESDYYCAIHVDRDIWVFGGGTKLTVLGGGGSGGGGSSGAPRFLTRPKAFVVSVGKDATLSSQIVGNPTPQVSWEKDQQPVAAGARFRLAQDGDLYRLTILDLALGDSGQYVSRARNAIGEAFACVGLQVDAEA
B18: H11 (antibody)
heavy: not shown
light: DIQMTQSPSSVSASVGDRVTITCRASQDIANYLSWYQQKPGKSPKLLIYGTSNLEVGVPSRFSGSRSGTDFTLTISSLQPEDFATYYCLQDKEFPRTFGGGTKVEIKQGSPPEFLRFPRPVRVVSGAEAELKCVVLGEPPPVVVWEKGGQQLAASERLSFPADGAEHGLLLTAALPTDAGCYVCRARNAAGEAYAAAAVTVLEPP
B19: H14 (antibody)
heavy: not shown
light: B18 light with C133S, C184S
B20: H13 (antibody)
heavy: not shown
light: B18 light with C181V, A193C
B21: H12 (antibody)
heavy: not shown
light: B18 light with C181V, G191C
B22: H15 (antibody)
heavy: not shown
light: B18 light with C133S, C181V, C184S, A193C
B23: R7 (antibody)
heavy: not shown
light: DIQMTQSPSSLSASVGDRVTITCLASEGISSYLAWYQQKPGKAPKLLIYGANSLQTGVPSRFSGSGSATDYTLTISSLQPEDFATYYCQQSYKFPNTFGQGTKVEVKSGAPRFLTRPKAFVVSVGKDATLSCQIVGNPTPQVSWEKDQQPVAAGARFRLAQDGDLYRLTILDLALGDSGQYVCRARNAIGEAFACVGLQVDAEA
B24: R9 (antibody)
heavy: not shown
light: B23 light with R116C, C195A
B25: R11 (antibody)
heavy: not shown
light: B23 light with A110C, C132S, C183S, C195A
B26: R12 (antibody)
heavy: not shown
light: B23 light with R116C, C132S, C183S, C195A
B27: R8 (antibody)
heavy: not shown
light: B23 light with A110C, C195A
B28: H5 (antibody)
heavy: not shown
light: DIQMTQSPSSVSASVGDRVTITCRASQDIANYLSWYQQKPGKSPKLLIYGTSNLEVGVPSRFSGSRSGTDFTLTISSLQPEDFATYYCLQDKEFPRTFGGGTKVEIKSGAPRFLTRPKAFVVSVGKDATLSCQIVGNPTPQVSWEKDQQPVAAGARFRLAQDGDLYRLTILDLALGDSGQYVCRARNAIGEAFACVGLQVDAEA
B29: H7 (antibody)
heavy: not shown
light: B28 light with R116C, C195A
B30: H10 (antibody)
heavy: not shown
light: B28 light with R116C, C132S, C183S, C195A
B31: H6 (antibody)
heavy: not shown
light: B28 light with A110C, C195A
B32: H8 (antibody)
heavy: not shown
light: B28 light with C132S, C183S
B33: H9 (antibody)
heavy: not shown
light: B28 light with A110C, C132S, C183S, C195A

In one assay the target is T1, B7H3 on the recombinant cell line …. Description: FACS, CT26-B7H3 cells.
In the case of B1, the EC50 was found to be 3.9 nM.
On to B2, for which the EC50 came to 2 nM.
Regarding B3, the EC50 amounted to 4.1 nM.
With B4, the EC50 turned out to be 2.2 nM.
Consider B5, for which the EC50 was 1.9 nM.
On the same count and under the same terms, as for B6, the figure is 3.4 nM.
As for B7, the EC50 worked out at 2.4 nM.
Consider B8, for which the EC50 is 4.8 nM.
The same measure, in the same setting: as for B9, the figure is 2.4 nM; as for B10, 2.6 nM.
Still for that read-out and setting: with B11 the figure was 3.6 nM; with B12, 3.4 nM.
Still for that read-out and setting: as for B13, the figure is 2.4 nM; as for B14, 2.6 nM.
For B15, the EC50 was 2.4 nM.
Still for that read-out and setting: with B16 the figure was 1.2 nM; with B17, 3.69 nM.

For another assay, the target named is T2, hIL-5 (human, UniProt P05113 20-134).
T2 construct: bought
As to the kind of experiment: ELISA.
Protocol: For an antibody targeting a soluble protein, the binding activity of the antibody against the soluble protein was detected by ELISA. […] After the blocking was completed, the blocking solution was discarded; and the plate was washed 3 times with a PBST buffer (pH 7.4, PBS containing 0.1% tween-20). 100 μL of the antibody solution diluted in a gradient was added to each well, and the mixture was incubated at 37° C. for 1 h. After the incubation was completed, the plate was washed 3 times with PBST. […] The plate was washed 3 times with PBST. […] The reaction was stopped by adding 50 μL of 1 M H₂SO₄ to each well. The absorbance values at 450 nm were read on a microplate reader, the binding curves of the antibodies to an antigen were fitted with software, and the EC₅₀ values were calculated.
B18 yielded an EC50 of 3.38 nM.
B19 showed an EC50 of 2.61 nM.
For B20, the EC50 worked out at 3.56 nM.
In the case of B21, the EC50 is 4.34 nM.
Still for that read-out and setting: as for B22, the figure is 4.26 nM.
Molecule B23 displayed an EC50 of 4.89 nM.
Same read-out and setting: with B24 the figure was 3.95 nM; with B25, 3.3 nM; with B26, 4.36 nM.
Still for that read-out and setting: with B27 the figure was 3.84 nM.
The same measure, in the same setting: as for B28, the figure is 3.4 nM; as for B29, 2.7 nM; as for B30, 2.86 nM.
B31 had an EC50 of 2.1 nM.
The molecule B32 gave an EC50 of 2.11 nM.
The molecule B33 returned an EC50 of 2.92 nM.
